Source: the supplement of paper PMC10065799, “High-throughput profiling of sequence recognition by tyrosine kinases and SH2 domains using bacterial peptide display” (eLife, 2023)

What was measured:
Grb2 SH2 = Grb2 SH2 (UniProt P62993); assay: SH2 binding enrichment of the phosphorylated peptide, bacterial display (enrichment ratio); higher = better substrate or ligand; peptides without Tyr show the background
c-Src SH2 = assay: as above
SHP2-C SH2 = assay: as above
Hck = Hck (UniProt P08631); assay: phosphorylation enrichment, bacterial display (enrichment ratio); higher = better substrate or ligand; peptides without Tyr show the background
Sequence of Hck (P08631 whole entry, looked up): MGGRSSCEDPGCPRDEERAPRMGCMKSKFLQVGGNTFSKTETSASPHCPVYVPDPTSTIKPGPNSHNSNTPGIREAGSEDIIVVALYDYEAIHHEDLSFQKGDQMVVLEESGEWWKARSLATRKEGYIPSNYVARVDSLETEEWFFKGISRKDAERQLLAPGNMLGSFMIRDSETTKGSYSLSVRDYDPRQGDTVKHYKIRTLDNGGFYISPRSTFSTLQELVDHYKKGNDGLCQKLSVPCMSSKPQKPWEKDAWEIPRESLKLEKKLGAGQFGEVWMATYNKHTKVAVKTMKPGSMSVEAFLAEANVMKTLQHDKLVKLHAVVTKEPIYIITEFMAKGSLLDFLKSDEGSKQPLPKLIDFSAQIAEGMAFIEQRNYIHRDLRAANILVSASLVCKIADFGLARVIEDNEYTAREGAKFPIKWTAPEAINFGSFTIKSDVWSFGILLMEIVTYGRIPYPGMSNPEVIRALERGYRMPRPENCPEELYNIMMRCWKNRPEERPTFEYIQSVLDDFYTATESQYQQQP

EPHB2 = EPHB2 (UniProt P29323); assay: as above
Jak2 = Jak2 (UniProt O60674); assay: as above
Fer (mouse) = assay: as above
FGFR3 = FGFR3 (UniProt P22607); assay: as above
AncSZ = assay: as above
FGFR1 = FGFR1 (UniProt P11362); assay: as above
Sequence of FGFR1 (P11362 whole entry, looked up): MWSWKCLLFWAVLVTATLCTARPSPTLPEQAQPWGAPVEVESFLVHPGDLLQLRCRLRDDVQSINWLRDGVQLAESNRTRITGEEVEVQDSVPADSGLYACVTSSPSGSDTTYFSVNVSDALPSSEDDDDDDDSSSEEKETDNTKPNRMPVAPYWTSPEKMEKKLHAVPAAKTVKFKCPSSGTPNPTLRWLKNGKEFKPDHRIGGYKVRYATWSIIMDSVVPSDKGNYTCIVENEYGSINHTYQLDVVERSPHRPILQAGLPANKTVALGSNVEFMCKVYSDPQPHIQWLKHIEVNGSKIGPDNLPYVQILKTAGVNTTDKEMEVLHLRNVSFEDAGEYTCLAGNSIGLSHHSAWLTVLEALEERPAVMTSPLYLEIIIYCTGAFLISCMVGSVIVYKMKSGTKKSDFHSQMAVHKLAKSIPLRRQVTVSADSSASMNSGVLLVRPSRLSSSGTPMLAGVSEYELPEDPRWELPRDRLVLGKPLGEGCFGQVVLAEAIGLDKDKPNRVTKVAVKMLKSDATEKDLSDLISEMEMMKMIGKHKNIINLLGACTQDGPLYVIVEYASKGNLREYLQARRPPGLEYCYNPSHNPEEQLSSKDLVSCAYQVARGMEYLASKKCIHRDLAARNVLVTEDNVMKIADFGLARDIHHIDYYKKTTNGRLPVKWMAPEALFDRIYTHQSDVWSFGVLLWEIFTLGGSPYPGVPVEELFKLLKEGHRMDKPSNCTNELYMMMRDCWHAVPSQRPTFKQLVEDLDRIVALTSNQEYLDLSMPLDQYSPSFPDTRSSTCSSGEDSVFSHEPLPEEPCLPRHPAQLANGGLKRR

c-Src = assay: as above
MERTK = MERTK (UniProt Q12866); assay: as above
Sequence of MERTK (Q12866 whole entry, looked up): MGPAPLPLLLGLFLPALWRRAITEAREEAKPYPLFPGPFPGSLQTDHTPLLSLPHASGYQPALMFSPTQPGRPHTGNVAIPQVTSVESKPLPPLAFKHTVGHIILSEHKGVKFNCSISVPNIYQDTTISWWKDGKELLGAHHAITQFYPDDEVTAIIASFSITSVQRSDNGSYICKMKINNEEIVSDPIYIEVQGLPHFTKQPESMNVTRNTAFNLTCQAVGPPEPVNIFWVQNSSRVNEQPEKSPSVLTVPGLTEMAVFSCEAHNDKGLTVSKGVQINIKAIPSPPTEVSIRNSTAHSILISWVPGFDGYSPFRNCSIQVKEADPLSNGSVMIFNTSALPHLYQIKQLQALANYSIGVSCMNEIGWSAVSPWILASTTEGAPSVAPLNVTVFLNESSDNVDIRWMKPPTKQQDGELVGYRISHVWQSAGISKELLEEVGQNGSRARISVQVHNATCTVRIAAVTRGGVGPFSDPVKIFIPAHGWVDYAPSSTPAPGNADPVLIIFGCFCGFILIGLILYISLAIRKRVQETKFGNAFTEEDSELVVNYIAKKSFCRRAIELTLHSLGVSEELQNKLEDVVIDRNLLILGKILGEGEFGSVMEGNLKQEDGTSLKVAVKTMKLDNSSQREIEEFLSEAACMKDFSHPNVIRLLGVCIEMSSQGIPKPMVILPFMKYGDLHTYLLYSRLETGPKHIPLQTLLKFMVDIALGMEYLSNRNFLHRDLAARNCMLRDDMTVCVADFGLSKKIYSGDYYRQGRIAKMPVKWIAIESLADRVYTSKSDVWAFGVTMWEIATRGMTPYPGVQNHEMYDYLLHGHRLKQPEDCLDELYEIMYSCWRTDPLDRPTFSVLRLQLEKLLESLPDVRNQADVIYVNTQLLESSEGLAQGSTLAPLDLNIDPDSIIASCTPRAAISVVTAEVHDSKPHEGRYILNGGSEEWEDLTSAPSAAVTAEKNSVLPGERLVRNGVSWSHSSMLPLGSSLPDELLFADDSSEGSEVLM

EPHB1 = EPHB1 (UniProt P54762); assay: as above
Sequence of EPHB1 (P54762 whole entry, looked up): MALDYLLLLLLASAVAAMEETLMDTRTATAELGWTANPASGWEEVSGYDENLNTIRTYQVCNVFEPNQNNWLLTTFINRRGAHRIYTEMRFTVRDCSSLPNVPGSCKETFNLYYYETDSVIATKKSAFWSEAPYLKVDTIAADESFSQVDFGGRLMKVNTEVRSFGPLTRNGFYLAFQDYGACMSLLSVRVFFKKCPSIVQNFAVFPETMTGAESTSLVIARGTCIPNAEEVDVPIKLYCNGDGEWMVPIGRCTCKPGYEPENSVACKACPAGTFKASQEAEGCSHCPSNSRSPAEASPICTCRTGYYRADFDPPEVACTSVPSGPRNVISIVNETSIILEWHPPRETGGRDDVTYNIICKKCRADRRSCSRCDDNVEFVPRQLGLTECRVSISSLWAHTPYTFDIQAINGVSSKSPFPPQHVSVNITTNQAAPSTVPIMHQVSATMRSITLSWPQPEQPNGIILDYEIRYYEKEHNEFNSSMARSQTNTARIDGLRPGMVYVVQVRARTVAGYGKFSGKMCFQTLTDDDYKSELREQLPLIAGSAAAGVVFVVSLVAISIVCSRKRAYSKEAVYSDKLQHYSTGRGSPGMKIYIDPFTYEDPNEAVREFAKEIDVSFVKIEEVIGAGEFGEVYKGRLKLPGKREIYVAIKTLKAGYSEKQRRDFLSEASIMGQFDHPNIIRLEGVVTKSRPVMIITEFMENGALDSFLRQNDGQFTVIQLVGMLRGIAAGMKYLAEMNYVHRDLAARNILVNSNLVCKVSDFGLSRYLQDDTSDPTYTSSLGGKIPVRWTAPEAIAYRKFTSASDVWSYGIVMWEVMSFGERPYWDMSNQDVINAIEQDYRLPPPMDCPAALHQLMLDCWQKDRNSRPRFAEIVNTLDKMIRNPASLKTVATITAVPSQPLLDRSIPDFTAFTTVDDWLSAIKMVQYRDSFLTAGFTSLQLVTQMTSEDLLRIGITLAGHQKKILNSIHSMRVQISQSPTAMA

Fyn = Fyn (UniProt P06241); assay: as above
Sequence of Fyn (P06241 whole entry, looked up): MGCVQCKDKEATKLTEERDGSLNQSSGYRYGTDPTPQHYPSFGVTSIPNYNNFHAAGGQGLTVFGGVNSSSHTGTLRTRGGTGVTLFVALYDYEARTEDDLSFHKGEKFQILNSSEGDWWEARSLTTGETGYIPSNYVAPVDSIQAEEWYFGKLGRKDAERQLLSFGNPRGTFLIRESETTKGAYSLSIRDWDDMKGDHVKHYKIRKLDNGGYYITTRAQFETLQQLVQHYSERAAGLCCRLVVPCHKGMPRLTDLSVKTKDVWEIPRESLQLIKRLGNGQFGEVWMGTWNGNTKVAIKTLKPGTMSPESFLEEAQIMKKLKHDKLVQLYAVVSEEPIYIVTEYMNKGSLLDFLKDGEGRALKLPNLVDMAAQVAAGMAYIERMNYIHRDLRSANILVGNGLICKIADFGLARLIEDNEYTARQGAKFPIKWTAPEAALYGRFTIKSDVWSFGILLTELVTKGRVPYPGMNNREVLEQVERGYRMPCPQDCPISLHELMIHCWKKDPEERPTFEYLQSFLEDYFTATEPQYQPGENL

Fes = Fes (UniProt P07332); assay: as above
Sequence of Fes (P07332 whole entry, looked up): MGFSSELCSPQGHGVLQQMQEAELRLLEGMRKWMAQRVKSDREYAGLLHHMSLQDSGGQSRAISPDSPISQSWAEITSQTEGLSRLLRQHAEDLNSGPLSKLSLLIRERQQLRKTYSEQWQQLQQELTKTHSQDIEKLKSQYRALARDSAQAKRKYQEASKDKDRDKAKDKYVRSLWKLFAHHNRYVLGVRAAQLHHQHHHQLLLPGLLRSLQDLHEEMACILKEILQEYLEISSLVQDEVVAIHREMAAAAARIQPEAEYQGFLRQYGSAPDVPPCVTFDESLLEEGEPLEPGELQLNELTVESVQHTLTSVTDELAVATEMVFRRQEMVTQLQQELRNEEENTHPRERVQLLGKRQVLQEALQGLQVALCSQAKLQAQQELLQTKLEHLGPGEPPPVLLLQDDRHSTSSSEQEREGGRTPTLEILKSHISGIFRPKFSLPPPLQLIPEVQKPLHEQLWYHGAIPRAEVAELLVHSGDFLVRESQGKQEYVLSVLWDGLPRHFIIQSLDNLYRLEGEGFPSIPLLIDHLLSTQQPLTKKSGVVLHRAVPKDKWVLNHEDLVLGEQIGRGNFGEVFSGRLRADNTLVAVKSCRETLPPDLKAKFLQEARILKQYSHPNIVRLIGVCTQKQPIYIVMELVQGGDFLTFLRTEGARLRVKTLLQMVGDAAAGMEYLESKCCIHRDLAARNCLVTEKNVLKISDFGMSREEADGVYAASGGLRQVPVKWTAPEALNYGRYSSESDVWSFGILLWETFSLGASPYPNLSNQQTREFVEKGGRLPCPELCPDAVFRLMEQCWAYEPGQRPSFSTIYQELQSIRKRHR

c-Abl (mouse) = assay: as above
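Throughout, for SH2 binding enrichment of the phosphorylated peptide, bacterial display: peptide library displayed on the E. coli surface as eCPX fusions, selected cells deep-sequenced, score is each peptide's frequency after selection divided by its frequency in the input.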
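Throughout, for phosphorylation enrichment, bacterial display: 11-residue human phosphosite peptides and single-mutation variants displayed on the E. coli surface, counted by deep sequencing, each peptide's frequency after selection divided by its frequency in the unselected input library; frequency after pTyr selection over input frequency; kinase dosed for 20-30% of maximal phosphorylation in three min.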

SH2 binding enrichment (Grb2 SH2)	SH2 binding enrichment (c-Src SH2)	SH2 binding enrichment (SHP2-C SH2)	Sequence	phosphorylation enrichment (Hck)	phosphorylation enrichment (EPHB2)	phosphorylation enrichment (Jak2)	phosphorylation enrichment (Fer (mouse))	phosphorylation enrichment (FGFR3)	phosphorylation enrichment (AncSZ)	phosphorylation enrichment (FGFR1)	phosphorylation enrichment (c-Src)	phosphorylation enrichment (MERTK)	phosphorylation enrichment (EPHB1)	phosphorylation enrichment (Fyn)	phosphorylation enrichment (Fes)	phosphorylation enrichment (c-Abl (mouse))
1.09	0.971	1.27	ERKQTYGSCRK [LACTB_Y473]	0.403	0.406	0.392	0.319	0.381	0.518	0.365	0.334	0.359	0.343	0.339	0.636	0.5
0.681	0.471	0.715	ESSKAYERDLS [TTC37_Y1074_A1077D]	0.456	0.488	0.499	0.519	0.524	0.735	0.384	0.402	0.432	0.394	0.419	0.771	0.533
0.866	0.664	0.618	ETGEPCRLSPE [EIF4G1_Y311_Y311C]	0.689	0.674	1.15	0.55	0.846	1.13	0.612	0.553	0.536	0.62	0.531	1.31	1.01
0.916	0.413	0.646	EVTLTYATGIK [NFKB1_Y485_T489I]	0.555	0.424	1.06	0.473	0.634	0.896	0.421	0.508	0.404	0.475	0.477	1.15	0.66
0.701	0.418	0.528	EVTLTYATGTK [NFKB1_Y485]	0.514	0.526	0.75	0.425	0.643	0.805	0.404	0.409	0.371	0.526	0.496	1.11	0.774
0.871	0.43	1.06	EWLRGYLENGK [HLA-C_Y195_R194G]	0.483	0.683	0.777	0.436	0.601	0.844	0.481	0.481	0.394	0.51	0.464	0.921	0.97
0.885	0.968	0.734	EWQQIYTYDSG [JUP_Y20_T19I]	6.09	0.971	1	4.55	5.58	1.6	6.84	6.89	7.85	1.69	8.85	1.18	0.75
0.813	1.01	0.775	EWQQTYTYDSG [JUP_Y20]	0.783	0.585	0.898	0.513	0.99	1.12	1.17	3.88	0.817	0.554	1.28	1.02	0.657
0.861	0.527	0.63	EYLHKYKGFKI [SYNE1_Y6953_Q6951H]	0.437	0.509	1.01	0.405	0.57	0.903	0.403	0.501	0.453	0.509	0.461	1.01	0.996
0.878	0.516	0.78	FADIAYNFRHG [PAH_Y166_YF]	0.506	0.514	0.734	0.396	0.512	0.67	0.581	0.532	0.428	0.522	0.558	0.713	0.578
0.799	0.541	0.822	FADIAYNFRRG [PAH_Y166_H170R_YF]	0.429	0.411	0.602	0.39	0.539	0.966	0.43	0.45	0.396	0.637	0.409	0.649	0.462
0.881	0.45	0.562	FADTAYNFRHG [PAH_Y166_I164T_YF]	0.379	0.386	0.45	0.317	0.39	0.599	0.342	0.415	0.305	0.363	0.369	0.62	0.544
0.907	0.624	0.612	FAELVYTSFWH [ASS1_Y322_G324S]	7.37	3.44	2.11	8.86	4.28	2.31	5.31	6.82	7.38	2.99	8.65	1.89	14
0.781	0.691	0.694	FAKSVYWDNTL [NUP107_Y296_E298D_YF]	0.578	0.772	1.02	0.463	0.688	1	0.525	0.76	0.725	0.719	0.679	1.04	0.656
0.79	0.516	0.576	FASALYRQRRS [FGF11_Y162_YF]	0.546	0.622	0.468	0.991	0.531	0.689	0.668	0.577	0.565	0.513	0.577	0.592	0.563
1.19	1.86	1.05	FCRHNYGVVES [HLA-DRB1_Y112_YF]	0.526	2.62	0.632	0.555	0.661	0.569	0.587	0.446	0.44	1.32	0.503	0.843	0.545

Sequence	SH2 binding enrichment (Grb2 SH2)	SH2 binding enrichment (c-Src SH2)	SH2 binding enrichment (SHP2-C SH2)	phosphorylation enrichment (Hck)	phosphorylation enrichment (EPHB2)	phosphorylation enrichment (Jak2)	phosphorylation enrichment (Fer (mouse))	phosphorylation enrichment (FGFR3)	phosphorylation enrichment (AncSZ)	phosphorylation enrichment (FGFR1)	phosphorylation enrichment (c-Src)	phosphorylation enrichment (MERTK)	phosphorylation enrichment (EPHB1)	phosphorylation enrichment (Fyn)	phosphorylation enrichment (Fes)	phosphorylation enrichment (c-Abl (mouse))
ESMLRYEVYGG [STOX1_Y607]	0.819	0.929	0.554	0.712	0.685	1.3	0.523	0.702	1.29	0.528	0.905	0.506	0.758	0.666	1.42	0.744
